{
  "source": "patent US20250361268A1",
  "about": "“NOVEL ANTI-INFLAMMATORY PEPTIDE AND USE THEREOF” (NOVACELL TECHNOLOGY INC., priority 2022, published 2025)",
  "key": {"[1]": {"target": "T1, formyl peptide receptor 2 (FPR2) (UniProt P25090 1-351, limits assumed)", "T1 sequence (looked up)": "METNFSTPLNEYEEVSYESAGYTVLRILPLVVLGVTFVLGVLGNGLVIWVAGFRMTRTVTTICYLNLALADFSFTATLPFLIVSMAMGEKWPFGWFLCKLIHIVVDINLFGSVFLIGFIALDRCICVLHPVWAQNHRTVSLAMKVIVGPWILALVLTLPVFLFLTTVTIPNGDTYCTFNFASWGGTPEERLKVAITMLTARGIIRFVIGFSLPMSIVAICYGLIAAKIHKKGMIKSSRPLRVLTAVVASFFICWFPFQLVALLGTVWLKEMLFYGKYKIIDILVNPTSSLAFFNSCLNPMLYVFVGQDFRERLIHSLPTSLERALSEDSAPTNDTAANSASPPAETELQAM", "assay": "cell-based or functional assay"}, "FPR1": {"target": "T2, FPR1 (UniProt P21462 1-350, limits assumed)", "T2 sequence (looked up)": "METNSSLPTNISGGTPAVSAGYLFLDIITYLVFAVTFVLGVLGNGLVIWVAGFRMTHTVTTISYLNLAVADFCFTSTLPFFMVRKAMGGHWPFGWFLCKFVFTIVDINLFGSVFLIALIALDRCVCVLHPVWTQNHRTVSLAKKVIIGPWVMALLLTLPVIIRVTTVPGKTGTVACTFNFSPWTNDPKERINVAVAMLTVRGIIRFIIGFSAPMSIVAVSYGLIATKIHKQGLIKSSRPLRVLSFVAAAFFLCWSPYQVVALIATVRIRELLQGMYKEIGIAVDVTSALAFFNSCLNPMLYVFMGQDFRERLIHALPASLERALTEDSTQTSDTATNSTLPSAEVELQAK", "assay": "cell-based or functional assay"}},
  "data": [
    {"binder": "HMKYKVM (HELM PEPTIDE1{H.M.K.Y.K.V.[dM].[am]}$$$$V2.0; N-terminus assumed; SMILES CSCC[C@H](NC(=O)[C@@H](N)Cc1c[nH]cn1)C(=O)N[C@@H](CCCCN)C(=O)N[C@@H](Cc1ccc(O)cc1)C(=O)N[C@@H](CCCCN)C(=O)N[C@H](C(=O)N[C@H](CCSC)C(N)=O)C(C)C)", "note": "[peptide of SEQ ID NO 21]", "values": [
      {"measurement": "EC50 for [Ca2+]", "setting": "[1]", "result": "< 0.01", "unit": "µM"},
      {"measurement": "EC50 for [Ca2+]", "setting": "FPR1", "result": "> 10", "unit": "µM"}
    ]},
    {"binder": "HKYKPM (HELM PEPTIDE1{[CCCCCCCC(=O)[*:2]].H.K.Y.K.P.[dM].[am]}$$$$V2.0; SMILES CCCCCCCC(=O)N[C@@H](Cc1c[nH]cn1)C(=O)N[C@@H](CCCCN)C(=O)N[C@@H](Cc1ccc(O)cc1)C(=O)N[C@@H](CCCCN)C(=O)N1CCC[C@H]1C(=O)N[C@H](CCSC)C(N)=O)", "note": "[peptide of SEQ ID NO 149]", "values": [
      {"measurement": "EC50 for [Ca2+]", "setting": "[1]", "result": "< 0.01", "unit": "µM"},
      {"measurement": "EC50 for [Ca2+]", "setting": "FPR1", "result": "> 10", "unit": "µM"}
    ]},
    {"binder": "HKYKPM (HELM PEPTIDE1{[ac].H.K.Y.K.P.[dM].[am]}$$$$V2.0; SMILES CSCC[C@@H](NC(=O)[C@@H]1CCCN1C(=O)[C@H](CCCCN)NC(=O)[C@H](Cc1ccc(O)cc1)NC(=O)[C@H](CCCCN)NC(=O)[C@H](Cc1c[nH]cn1)NC(C)=O)C(N)=O)", "note": "[peptide of SEQ ID NO 147]", "values": [
      {"measurement": "EC50 for [Ca2+]", "setting": "[1]", "result": "< 0.01", "unit": "µM"},
      {"measurement": "EC50 for [Ca2+]", "setting": "FPR1", "result": "> 10", "unit": "µM"}
    ]},
    {"binder": "RWRYFYM (HELM PEPTIDE1{R.W.R.Y.F.Y.[dM].[am]}$$$$V2.0; N-terminus assumed; SMILES CSCC[C@@H](NC(=O)[C@H](Cc1ccc(O)cc1)NC(=O)[C@H](Cc1ccccc1)NC(=O)[C@H](Cc1ccc(O)cc1)NC(=O)[C@H](CCCNC(=N)N)NC(=O)[C@H](Cc1c[nH]c2ccccc12)NC(=O)[C@@H](N)CCCNC(=N)N)C(N)=O)", "note": "[peptide of SEQ ID NO 156]", "values": [
      {"measurement": "EC50 for [Ca2+]", "setting": "[1]", "result": "< 0.01", "unit": "µM"},
      {"measurement": "EC50 for [Ca2+]", "setting": "FPR1", "result": "> 10", "unit": "µM"}
    ]},
    {"binder": "IKYKPM (HELM PEPTIDE1{[ac].I.K.Y.K.P.[dM].[am]}$$$$V2.0; SMILES CC[C@H](C)[C@H](NC(C)=O)C(=O)N[C@@H](CCCCN)C(=O)N[C@@H](Cc1ccc(O)cc1)C(=O)N[C@@H](CCCCN)C(=O)N1CCC[C@H]1C(=O)N[C@H](CCSC)C(N)=O)", "note": "[peptide of SEQ ID NO 143]", "values": [
      {"measurement": "EC50 for [Ca2+]", "setting": "[1]", "result": "< 0.01", "unit": "µM"},
      {"measurement": "EC50 for [Ca2+]", "setting": "FPR1", "result": "> 10", "unit": "µM"}
    ]},
    {"binder": "MRYKVM (HELM PEPTIDE1{[CCCC(=O)[*:2]].M.R.Y.K.V.[dM].[am]}$$$$V2.0; SMILES CCCC(=O)N[C@@H](CCSC)C(=O)N[C@@H](CCCNC(=N)N)C(=O)N[C@@H](Cc1ccc(O)cc1)C(=O)N[C@@H](CCCCN)C(=O)N[C@H](C(=O)N[C@H](CCSC)C(N)=O)C(C)C)", "note": "[peptide of SEQ ID NO 15]", "values": [
      {"measurement": "EC50 for [Ca2+]", "setting": "[1]", "result": "< 0.01", "unit": "µM"},
      {"measurement": "EC50 for [Ca2+]", "setting": "FPR1", "result": "> 10", "unit": "µM"}
    ]},
    {"binder": "MKYKVM (HELM PEPTIDE1{[ac].M.K.Y.K.V.[dM].[am]}$$$$V2.0; SMILES CSCC[C@H](NC(C)=O)C(=O)N[C@@H](CCCCN)C(=O)N[C@@H](Cc1ccc(O)cc1)C(=O)N[C@@H](CCCCN)C(=O)N[C@H](C(=O)N[C@H](CCSC)C(N)=O)C(C)C)", "note": "[peptide of SEQ ID NO 18]", "values": [
      {"measurement": "EC50 for [Ca2+]", "setting": "[1]", "result": "< 0.01", "unit": "µM"},
      {"measurement": "EC50 for [Ca2+]", "setting": "FPR1", "result": "> 10", "unit": "µM"}
    ]},
    {"binder": "IKYKPM (HELM PEPTIDE1{I.K.Y.K.P.[dM].[am]}$$$$V2.0; N-terminus assumed; SMILES CC[C@H](C)[C@H](N)C(=O)N[C@@H](CCCCN)C(=O)N[C@@H](Cc1ccc(O)cc1)C(=O)N[C@@H](CCCCN)C(=O)N1CCC[C@H]1C(=O)N[C@H](CCSC)C(N)=O)", "note": "[peptide of SEQ ID NO 142]", "values": [
      {"measurement": "EC50 for [Ca2+]", "setting": "[1]", "result": "< 0.01", "unit": "µM"},
      {"measurement": "EC50 for [Ca2+]", "setting": "FPR1", "result": "> 10", "unit": "µM"}
    ]},
    {"binder": "IKYKPM (HELM PEPTIDE1{[CCCC(=O)[*:2]].I.K.Y.K.P.[dM].[am]}$$$$V2.0; SMILES CCCC(=O)N[C@H](C(=O)N[C@@H](CCCCN)C(=O)N[C@@H](Cc1ccc(O)cc1)C(=O)N[C@@H](CCCCN)C(=O)N1CCC[C@H]1C(=O)N[C@H](CCSC)C(N)=O)[C@@H](C)CC)", "note": "[peptide of SEQ ID NO 144]", "values": [
      {"measurement": "EC50 for [Ca2+]", "setting": "[1]", "result": "< 0.01", "unit": "µM"},
      {"measurement": "EC50 for [Ca2+]", "setting": "FPR1", "result": "> 10", "unit": "µM"}
    ]},
    {"binder": "HKYKPM (HELM PEPTIDE1{H.K.Y.K.P.[dM].[am]}$$$$V2.0; N-terminus assumed; SMILES CSCC[C@@H](NC(=O)[C@@H]1CCCN1C(=O)[C@H](CCCCN)NC(=O)[C@H](Cc1ccc(O)cc1)NC(=O)[C@H](CCCCN)NC(=O)[C@@H](N)Cc1c[nH]cn1)C(N)=O)", "note": "[peptide of SEQ ID NO 146]", "values": [
      {"measurement": "EC50 for [Ca2+]", "setting": "[1]", "result": "< 0.01", "unit": "µM"},
      {"measurement": "EC50 for [Ca2+]", "setting": "FPR1", "result": "> 10", "unit": "µM"}
    ]},
    {"binder": "MKYKVM (HELM PEPTIDE1{[CCCC(=O)[*:2]].M.K.Y.K.V.[dM].[am]}$$$$V2.0; SMILES CCCC(=O)N[C@@H](CCSC)C(=O)N[C@@H](CCCCN)C(=O)N[C@@H](Cc1ccc(O)cc1)C(=O)N[C@@H](CCCCN)C(=O)N[C@H](C(=O)N[C@H](CCSC)C(N)=O)C(C)C)", "note": "[peptide of SEQ ID NO 19]", "values": [
      {"measurement": "EC50 for [Ca2+]", "setting": "[1]", "result": "< 0.01", "unit": "µM"},
      {"measurement": "EC50 for [Ca2+]", "setting": "FPR1", "result": "> 10", "unit": "µM"}
    ]},
    {"binder": "MKYKVM (HELM PEPTIDE1{M.K.Y.K.V.[dM].[am]}$$$$V2.0; N-terminus assumed; SMILES CSCC[C@H](N)C(=O)N[C@@H](CCCCN)C(=O)N[C@@H](Cc1ccc(O)cc1)C(=O)N[C@@H](CCCCN)C(=O)N[C@H](C(=O)N[C@H](CCSC)C(N)=O)C(C)C)", "note": "[peptide of SEQ ID NO 17]", "values": [
      {"measurement": "EC50 for [Ca2+]", "setting": "[1]", "result": "< 0.01", "unit": "µM"},
      {"measurement": "EC50 for [Ca2+]", "setting": "FPR1", "result": "> 10", "unit": "µM"}
    ]},
    {"binder": "RWRYTYM (HELM PEPTIDE1{R.W.R.Y.T.Y.[dM].[am]}$$$$V2.0; N-terminus assumed; SMILES CSCC[C@@H](NC(=O)[C@H](Cc1ccc(O)cc1)NC(=O)[C@@H](NC(=O)[C@H](Cc1ccc(O)cc1)NC(=O)[C@H](CCCNC(=N)N)NC(=O)[C@H](Cc1c[nH]c2ccccc12)NC(=O)[C@@H](N)CCCNC(=N)N)[C@@H](C)O)C(N)=O)", "note": "[peptide of SEQ ID NO 157]", "values": [
      {"measurement": "EC50 for [Ca2+]", "setting": "[1]", "result": "< 0.01", "unit": "µM"},
      {"measurement": "EC50 for [Ca2+]", "setting": "FPR1", "result": "> 10", "unit": "µM"}
    ]},
    {"binder": "RWRYLYM (HELM PEPTIDE1{R.W.R.Y.L.Y.[dM].[am]}$$$$V2.0; N-terminus assumed; SMILES CSCC[C@@H](NC(=O)[C@H](Cc1ccc(O)cc1)NC(=O)[C@H](CC(C)C)NC(=O)[C@H](Cc1ccc(O)cc1)NC(=O)[C@H](CCCNC(=N)N)NC(=O)[C@H](Cc1c[nH]c2ccccc12)NC(=O)[C@@H](N)CCCNC(=N)N)C(N)=O)", "note": "[peptide of SEQ ID NO 154]", "values": [
      {"measurement": "EC50 for [Ca2+]", "setting": "[1]", "result": "< 0.01", "unit": "µM"},
      {"measurement": "EC50 for [Ca2+]", "setting": "FPR1", "result": "> 10", "unit": "µM"}
    ]},
    {"binder": "HKYKPM (HELM PEPTIDE1{[CCCC(=O)[*:2]].H.K.Y.K.P.[dM].[am]}$$$$V2.0; SMILES CCCC(=O)N[C@@H](Cc1c[nH]cn1)C(=O)N[C@@H](CCCCN)C(=O)N[C@@H](Cc1ccc(O)cc1)C(=O)N[C@@H](CCCCN)C(=O)N1CCC[C@H]1C(=O)N[C@H](CCSC)C(N)=O)", "note": "[peptide of SEQ ID NO 148]", "values": [
      {"measurement": "EC50 for [Ca2+]", "setting": "[1]", "result": "< 0.01", "unit": "µM"},
      {"measurement": "EC50 for [Ca2+]", "setting": "FPR1", "result": "> 10", "unit": "µM"}
    ]}
  ]
}
